How the values were obtained:
[1] = substrate: Nc1ncnc2c1ncn2CCOCP(=O)(O)O; assay: TP_TRANSPORTER: uptake in OAT1-expressing CHO cells; assay type: functional, cell-based
[2] = substrate: Nc1ccn(C[C@@H](CO)OCP(=O)(O)O)c(=O)n1; assay: cells, lysate or membranes named

B1: Solute carrier family 22 member 6 (Homo sapiens) (protein)
chain: MAFNDLLQQVGGVGRFQQIQVTLVVLPLLLMASHNTLQNFTAAIPTHHCRPPADANLSKNGGLEVWLPRDRQGQPESCLRFTSPQWGLPFLNGTEANGTGATEPCTDGWIYDNSTFPSTIVTEWDLVCSHRALRQLAQSLYMVGVLLGAMVFGYLADRLGRRKVLILNYLQTAVSGTCAAFAPNFPIYCAFRLLSGMALAGISLNCMTLNVEWMPIHTRACVGTLIGYVYSLGQFLLAGVAYAVPHWRHLQLLVSAPFFAFFIYSWFFIESARWHSSSGRLDLTLRALQRVARINGKREEGAKLSMEVLRASLQKELTMGKGQASAMELLRCPTLRHLFLCLSMLWFATSFAYYGLVMDLQGFGVSIYLIQVIFGAVDLPAKLVGFLVINSLGRRPAQMAALLLAGICILLNGVIPQDQSIVRTSLAVLGKGCLAASFNCIFLYTGELYPTMIRQTGMGMGSTMARVGSIVSPLVSMTAELYPSMPLFIYGAVPVAASAVTVLLPETLGQPLPDTVQDLESRWAPTQKEAGIYPRKGKQTRQQQEHQKYMVPLQASAQEKNGL
Km [1]: 23.8 µM
Km [2]: 58 µM
